Assay results from a protein production outcome set (Wang et al. 2014).

Assay: label from the status in PepcDB records

| Sequence | protein production |
| --- | --- |
| MKKRIKELTDLLNRYRYDYYTKDAPSVSDSDYDKLYRELVTLEQSYPEYVLQDSPTQQVGGTILKGFEKYRHQYPLFSLQDAFSREELDAFDKRVKAEFPNATYLAELKIDGLSISLSYENGFLQVGATRGDGNIGENITENIKKIKDIPYQLSEPLTITVRGEAYMSRQSFKAINEARQENGETEFANPRNAAAGTLRQLDTSVVAKRQLATFLYQEASPTARNQQNEVLAELADLGFSVNPYYQLTSSMDEIWDFIKTIEAKRDQLAYDIDGVVIKVNSLAMQEELGFTVKAPRWAIAYKFPAEEKEAEILSVDWTVGRTGVVTPTANLTPVQLAGTTVSRATLHNVDYIAEKDIRIGDTVIVYKAGDIIPAVLNVVMSKRNQQEVMLIPKLCPSCGSELVHFEDEVALRCINPLCPSLIQRSLEHFASRDAMNITGLGPAIVEKLFLAGFVHDVADIYQLTKEDFMQLDGIKEKSADKLLAAIEASKSNSAEKLLFGLGIRHIGSKVSRLILEVYGDISALLTAKEEEIARIDGLGSTIAQSLTQYFEQKTAAILVDELKTAGVNMHYSGQKVNSDAALFGLTVVLTGKLNQLNRNEAKDKLEALGAKVTGSVSKKTDLVIAGSDAGSKLEKAKSLGIRIEDEDWLRQL | failed |
| MAPSCLKMAHMRLLLTSFGHDHIRDFVRGTVAYIPDATRLFADSPEAAPFMETERNMLREHGLSIRELPISTSTPEEVDRVLGEVDGVYVAGGETFDLMWLLRSTGNDEVLIKHVRAGLPYIGTSAGAVIAGPSIEPISFLDSPDVAPNLSDYSGLGLCEHVVVPHAGGTIPQFPIDVFAETVRTYGAEFPLVLLKDGQALLIDDHGVHLILEHHHHHH | not failed |
| MSLMQLQLTQEWDKTFPLSAKVEHRKVTFANRYGITLAADLYLPKNRGGDRLPAIVIGGPFGAVKEQSSGLYAQTMAERGFVTLAFDPSYTGESGGQPRNVASPDINTEDFSAAVDFISLLPEVNRERIGVIGICGWGGMALNAVAVDKRIKAVVTSTMYDMTRVMSKGYNDSVTLEQRTRTLEQLGQQRWKDAESGTPAYQPPYNELKGGEAQFLVDYHDYYMTPRGYHPRAVNSGNAWTMTTPLSFMNMPILTYIKEISPRPILLIHGERAHSRYFSEIAYAAAAEPKELLIVPGASHVDLYDRLDRIPFDRIAGFFDEHLEGHHHHHH | not failed |
| MKDLYQKFIYLIPSIIIFLITLSVTLKYSWPIGWDIFYHIHLSKVYMANGLTFFDPIYNAPGTIINYPPVFHLVILVLGYVLRMDLFDVARLMQPFLAALVALSVTVVASRLYEDKYVGIFAGLILFSGSIAMRLGSSLPENMALIFLPLSIFFFYEFFKDDKIIASFISGCLTGLVALIHPAATFCLVFAITFITAGLVITEFYFERDTGVIKRALKGYAILIGTAGLIASVWWLPAFYFKSLGHGGVATSLSVSRSLSILKYPDALGYFVLVLAVAGIIPAIRRFELRDRLILLWIISMFILSKSYYFGINVITYRVLIYIMIPLTILASSGLISVVEAIKNKNKDIARILLIALFIFAVFQAFNNLSSSKVADYGAMTAYGRINIAPPTDSEFELAKWFNSQNEDGKISLSNYFTGGFVMAYTNRPVDSLLYEKSEIPSRDELTEREISYLVFDKRLKASGDFKFNASSSFLFYNPNRINISDLEYPYLQKIYENQDFVVYRVL | failed |
| MNGGSSIKVLGLVGSPKVDGNTAKMVDAILEGAAENGAETVIYNLASLDIKGCDACHRCQETGCCAIDDDMQELYRQIEEADAVVLGSPVYMWQMTAQTKLLIDRMTAFLKPNFSSRLDHKKLILVFTQGIPDRDAFNSYFEYTAGVLYYLGFDVLETIVAAGTDNLEVAFRPRLLEKSRELGKLISASNPVSPRLEHHHHHH | failed |
| MDSEKALELVKHGATLLFLDVPQYTLVGIDTQIFAVGPAFKGIKMIPPGIHFVFYSSSTRDGREFSPTIGFFVDVAPSQVIVRKWNQQDEWLTKVSEEEEERYSQAVRSLEFDKNLGPYNLKQYGEWRHLSNYITKDVVEKFEPVGGEITVTYESAILKGGPKTAMEIALDTQMKKSKFTTSSTEQPKGNRFYYTSIPRIIKHKGMSGQELTSMNLDKTQLLESVLSKEYKDSEDLLLGELQFSFVAFLMGQSLESFMQWKSIVSLLLGCTSAPFQTRSQLFTKFIKVIYHQLKYGLQKENSGPETGIHALLDDSWLASDSFLHFLCKDFFALVEETSVVDGDLLSWTRKFKELLENRLGWEFQKKSAVDGIYFEEDDEYAPVVEMLDESHGEYMDKTT | failed |
| MHMKTVRQERLKSIVRILERSKEPVSGAQLAEELSVSRQVIVQDIAYLRSLGYNIVATPRGYVLAGGKSGVSRLVAVKHAPEEIKEELLCVVRNGGRIVDVIVEHPVYGEIRGIIDVSSEEEVLKFVNLMEMAKTEPLLTLSGGVHLHTIEAPDEETMERIMRELKKKGFLIEEG | not failed |
| KKAVINDSNTPLHLLQPAYQGTYGDLTPEQVKKDIDRVFAYIDKETPARVVDKNTGKVITDYTAMGDEAQLERGAFRLASYEWGVTYSALIAAAETTGDKRYTDYVQNRFRFLAEVAPHFKRVYEEKGKTDSQLLQILTPHALDDAGAVCTAMIKLRLKDESLPVDGLIQNYFDFIINKEYRLADGTFARNRPQRNTLWLDDMFMGIPAVAQMSRYDKEAKNKYLAEAVKQFLQFADRMFIPEKGLYRHGWVESSTDHPAFCWARANGWALLTACELLDVLPEDYPQRPKVMDYFRAHVRGVTALQSGEGFWHQLLDCNDSYLETSATAIYVYCLAHAINKGWIDAIAYGPVAQLGWHAVAGKINEEGQVEGTCVGTGMAFDPAFYYYRPVNVYAAHGYGPVLWAGAEMIRLLNTQHPQMNDSAVQYYQEKQKTTAPIFAVDSE | not failed |
| MSSLNIKQGSDAHFPDYPLASPSNNEIDLLNLISVLWRAKKTVMAVVFAFACAGLLISFILPQKWTSAAVVTPPEPVQWQELEKTFTKLRVLDLDIKIDRTEAFNLFIKKFQSVSLLEEYLRSSPYVMDQLKEAKIDELDLHRAIVALSEKMKAVDDNASKKKDEPSLYTSWTLSFTAPTSEEAQTVLSGYIDYISALVVKESIENVRNKLEIKTQFEKEKLAQDRIKMKNQLDANIQRLNYSLDIANAAGIKKPVYSNGQAVKDDPDFSISLGADGIERKLEIEKAVTDVAELNGELRNRQYLVEQLTKANINDVNFTPFKYQLSPSLPVKKDGPGKAIIVILSALIGGMVACGSVLLRYAMASRKQDAMMADHLV | not failed |
| MITFIGHVSKDVNVVDGKREIAYGGGVVMGAITSSLLGVKTKVITKCTREDVSKFSFLRDNGVEVVFLKSPRTTSIENRYGSDPDTRESFLISAADPFTESDLAFIEGEAVHINPLWYGEFPEDLIPVLRRKVMFLSADAQGFVRVPENEKLVYRDWEMKEKYLKYLDLFKVDSREAETLTGTNDLRESCRIIRSFGAKIILATHASGVIVFDGNFYEASFRSWSLEGRTGRGDTCTAAFLVGFVFKKMSIEKATKFAAAVTSVKMRHPGPLRREDLEAISGDQYF | not failed |
| MARFDRYLLSQLVALFGFFSLVLVLVYWINRAVGLFDDLISDGQSALVFLEFSLLALPNVIRLVLPLSAFAATIYVVNRLSQESELVVMQATGFSAFRLARPVIWFGLIVALMMIVLMNLLVPASRATLSARSAEISQNATARFLRDGEFLHPADGVTLYIREVTETGELRDLLLVDDRDPARSTAYTARRALLVRTDTTPKLLMIDGSAQTLTREGRRLELTRFDDVTYDLGAFMTGSGPKRRVLEELPTMTLLAPTAEVLEETRSTRAAALYEGHSRIGQPFLGFASSLIGFAALLLGSFSRFGLWWQILFAVLLLIVVQTINVAASGVGVTDEQLWPLAYAAPVTGFAIGILLLWIGQRPRRLRRALNGIFAS | failed |
| MNLFRSERGALALLLGVSALILLLGLGSRELWGPETRWANIALQMLQSGDYFDPYLKGAPYYDKPLPSYWLITASAWLMGGLGHWSLRLSSVIAAWLSIWLVYLIGERLFHKGTGLIAGWMLATTFYFAFWARVATADVLTVCGVLAAVWWYWRGPEDTRLGRYTVFFLILAATSLLKGLIGFVLPGLILLPHLLSQGRWKRHLNLRLVLALSIAALFYMVPFVLSHLYGAPSYGESGLSLVFRENVVRFFNPFDHVGPIYTYLIYLPAYTLPWAPCWILGLWLAARHWRQLQPNERWLVWALGLLFLFFTASGSRRSYYVLPLVPFAQLLGAWWLNRRLQLRQAVGKPVSRGWPLGFSCAALVMLLVLGVAYPWSNSGGGVMQFSADTRAAASRIAPWNQWRMVMVEIDNKLPMYLQNQGAPFYYVAETADFPRNGSSADFMAWLDKTSGQHWDPQRTLIFVQQKHDEPLMLGYLGEDHQLVRTTPTNGERLAKKPAQGSVAFIPRIPGN | failed |
| MKDLKDSLKILYQFKTDYLKVTLLLTILQAFVIGPFIYYFFFFILRVIGVPGITDANLGEVFSSPVAVIMLLILALLILLFVYYELGFFIMMAIYQLRGESYTVFKIIQRLNVKAKYFLSYQAIYFLLYFFLLLPIAGLSLPITITENLYLPHFITDELMKTTTGTWLYVIAIAIIFYISARLVFALPYFIEDKSLKISGAIRKSWKFSQKHLFFMLLKWVLIIVVIGFLVSIIATIIMLPLLLVEKITPGIAVVIAGITLTILQVIGFFAAGIFQGIIAQLLVKNAFAIEGQHAPVARNQFPHKKRFIIVAIIVFIIFSGFNIFTVNATLYEPNTKIIAHRGDTMNAVENTVEAIESAAKSGADYSEIDIQETKDHQFVVFHDMTLRRLAGSSKRVADMTLKELQQTKVKSGDYSSHIASFDEIIKTAKKNKIDLLVEVKLHGGESSDMVERLVTLLKKEKVTDKYLVQSLNQPVIEEIEKADPSLKTGIILALNIGNLPKTSADFIVLEDFSINKRLLTQAKQNDKMVFVWTVNKEKLMQMYLRKNVDGIITNYPKKAIELRESFNENDSLRSRIENRLGF | failed |
| MGLVTDEVRARAEKYTGDEICREKTKEFLKEVSMPNGLLPLKDIEEVGYDRETGIVWLKQKKSITHKFEAIGKLVSYATEVIAQVEVGKIKKLTGVKAKELLIWVTLNELVLEQPTSSGKINFRTPTGLSRTFPVSAFVVPEVEKPATEKNNGTTEVKEAVAVTDA | failed |
| MSVTVFIPGDSAALAVGANRVAEAIAREAASRNLDVQIVRNGSRGMLWLEVLVEVRTEHGRIAYGPVKAADVTSLFDADFLDGGDHRLCLGPTKDIPFLKNQTRLTFARCGVTDPLSLEDYRNYQGMKGLEKAVTMEPLAIVAQVTESGLRGRGGAGFPTGIKWKTVADARADQKYIVCNADEGDSGTFADRMIMEGDPFVLIEGMAIAGLAVGATKGFIYTRSEYPYAIKVMEKAIEIARREGILGSSVLGSGRAFDMEVRMGAGAYVCGEETSLLNSLEGKRGTVRAKPPLPALQGLFGKPTVVNNVISLASIPVIMDRGAAFYRDFGVGRSHGTIPIQLAGNIRYGGLYETAFGLTLGQLVNDIGGGTITGRPVKAVQVGGPLGAYFPVSLFDTIFDYEAFTAAGGLIGHAGIVVFDDTADMLHQARFALEFCAVESCGKCTPCRIGSTRGVETVDKIALGIEREKNTALLEDLCETMKFGSLCALGGFTPYPVMSALRHFPQDFAPIPRVEAAELEHHHHHH | failed |
| MGRLHCTEDPVPEAVGGDMQQLNQLGAQQFSALTEVLFHFLTEQKEVERFLAQLSEFATTNQISLGSLRSIVKSLLLVPNGALKKSLTAKQVQADFITLGLSEEKATYFSEKWKQNTPTLARWAIGQTLMINQLIDMEWKFGVTSGSSELEKVGSIFLQLKLVVKKGNQTKNVYIELTLPQFYSFLHEMERVRTSMECFC | failed |
| MPMPTMSQAPHSVRPLNRGHWIATYFIGVAGLSLALMLVLNLILLTTSQNPGKALLDSLSFSVAVLMVSLVLITLIAALPCILFFWLAQRFTWRHLWIYLVSGALAAQFAIPVMTKLLPELFNLPHGVSAALHYLQLASMFGGCGVFMGGLFWWRSGRHLR | failed |
| MSIIDLTKLEQKVATMWDSILTNSPFIHEVLDGKATKALYAIYMTETYHYTKHNAKNQALVGIMGKDLPGKYLSFCFHHAHEEAGHELMALSDIASIGFDREDVLSSKPLPATETLIAYLYWISATGNPVQRLGYSYWAENVYGYIDPVLKAIQSTLDLTPQSMKFFIAHSKIDAKHAEEVNEMLHEVCKTQEDVDSVVAVMENSLVLTARILDDVWKEYQLFQSGASDRYAFLRDNA | not failed |
